Type in all cases: cell-based
For experiment [1], the target named is T1, Gαi1-YFP / CFP-Gβ1 / Gγ2 heterotrimer (Gi) (Homo sapiens, UniProt P63096).
T1 construct: expressed in transfected cells; host or cells: HeLa cells stably depleted of GIV by shRNA
Nature of the experiment: FRET assay of Gi heterotrimer dissociation after EGF in GIV-depleted HeLa cells. As for the experimental part: HeLa cells stably depleted of GIV by shRNA were grown to 60-70% confluence in sterile 35 mm MatTek glass bottom dishes. One microgram each of various donor and acceptor plasmid constructs were transfected with Trans-IT-LT1 transfection reagent (Minis Bio LLC) using manufacturer's protocol. Cells were starved overnight in serum-free DMEM (Gibco), transduced the following morning with TAT proteins for 30 min, washed with PBS and subsequently the media was switched to DMEM without phenol red before live cell imaging. EGF stimulation was carried out ˜4 h after TAT transduction. Fluorescence microscopy studies were conducted on single cells in mesoscopic regime to avoid inhomogeneities from samples as previously rationalized by Midde et al. (55-57). Olympus FV1000 inverted confocal laser scanning microscope was used for live cell FRET imaging (UCSD-Neuroscience core facility). The microscope is stabilized on a vibration proof platform, caged in temperature controlled (37° C.) and CO2 (5%) supplemented chamber. A 60×1.49 N. An oil immersed objective designed to minimize chromatic aberration and enhance resolution for 405-605 nm imaging was used. Olympus Fluoview inbuilt software was used for data acquisition through the method of sensitized emission. A 405 nm laser diode was used to excite ECFP and 515 nm Argon-ion laser was used to excite EYFP. The bandwidth of spectral emission was adjusted through grating to minimize bleed through. Enhanced CFP emission was collected from 425 to 500 nm and EYFP emission was collected through 535-600 nm and passed through a […] confocal pinhole before being sent to photomultiplier tube to reject out of plane focused light. Every field of view is imaged sequentially through ECFPex/ECFPem, ECFPex/EYFPem and EYFPex/EYFPem (3 excitation and emission combinations) and saved as donor, transfer and acceptor image files through an inbuilt wizard.
To obtain the FRET images and efficiency of energy transfer values a RiFRET plugin in Image J software was used (58). FRET images were obtained by pixel-by-pixel ratiometric intensity method and efficiency of transfer was calculated by the ratio of intensity in transfer channel to the quenched (corrected) intensity in the donor channel. Cells transfected with CFP and YFP alone were imaged under all three previously mentioned excitation and emission combinations and are used to correct for cross-talk. Furthermore, untransfected cells and a field of view without cells were imaged to correct for background, autofluorescence and light scattering. Cells chosen for imaging were ensured for identical expression of donor and acceptor probes by the photons collected in individual channels.

For the next experiment, the system named is HeLa cells. Briefly: Scratch-wound 2D cell migration assay. The conditions noted are these: compared to mock treatment, 12 h and 24 h. As for the experimental part:
Scratch-wound assays were done as described (49). Briefly, monolayer cultures (100% confluent) of HeLa cells were incubated first in a 0.2% serum media over night. The following morning, monolayers of HeLa cells were first transduced with TAT peptides for 30 min, then washed three times with PBS and placed again in a 0.2% serum media for 1 h 30 min before scratch-wounding. The wounds were created using a 20 μL pipette tip. Transduction with TAT peptides was repeated at 12 h into the wound healing assay (a total of two times). Healing wounds were monitored by phase-contrast microscopy over the next 24 h and serially photographed using a Canon digital SLR camera. To quantify cell migration (expressed as percent of wound closure) the acquired images were analyzed using Image J software to measure open wound area. Results were expressed as % closure by calculating the difference between the wound area at 0 h, 12 h and that at 24 h divided by the area at 0 h×100. Invasion assays were performed using Corning Transwell plates according to the manufacturer's protocol.
Scratch-wound assays were done as described previously (13). […] Healing wounds were monitored by phase-contrast microscopy over the next 24 h and migration index was quantified (expressed as % wound closure) by measuring the wounded area using Image J software.

Experiment [2] relates to EGFR autophosphorylation and Akt signaling. Briefly: EGF signaling in TAT-transduced HeLa cells by immunoblotting. As to conditions: 50 nM EGF; for EGFR autophosphorylation: pY1068. As for the experimental part:
For immunoblotting, protein samples were separated by SDS/PAGE and transferred to PVDF membranes (Millipore). Membranes were blocked with PBS supplemented with 5% nonfat milk (or with 5% BSA when probing for phosphorylated proteins) before incubation with primary antibodies. Infrared imaging with two-color detection and quantification were performed using a Li-Cor Odyssey imaging system (50, 52, 53). Primary antibodies were diluted as follows: anti-His 1:1,000; anti-GIV/Girdin (T-13) 1:500; antiphospho EGFR 1068 (1:1000); anti-phospho-Akt (Ser473) 1:250; anti-Akt 1:500; anti-Gαi3 1:333; anti-pan-GP 1:250; anti-α tubulin 1: 2,000. All Odyssey images were processed using Image J software (NIH) and assembled for presentation using Photoshop and Illustrator software (Adobe).
For TAT-protein transduction, cells were incubated with 400-800 nM of the TAT-proteins for 30 min at 37° C. prior to three washes with PBS and addition of fresh growth media. For analysis of EGF signaling, subconfluent monolayers of HeLa cells were treated with TAT proteins for 30 min, washed with PBS, and subsequently stimulated with EGF (50 nM) at 4 h after TAT transduction. For scratch-wound assays, HeLa monolayers were treated with TAT proteins before and at 12 h after wounding. For cancer cell invasion assays, highly invasive MDA MB 231 breast cancer cells were plated in 6-well dishes, treated with TAT-peptides for 30 min and subsequently lifted and placed in transwell chamber in the presence of serum-free media. For L×2 myofibroblast activation assays, cells were first treated with TAT-proteins for 30 min, starved in serum-free media, and subsequently treated with 1.5 ng/ml TGF-β for 24 h. TAT-protein transduction was repeated every 8 h during the course of TGFβ stimulation (total 3 treatments). For assays involving insulin stimulation of TAT-treated L6 myotubes, such stimulation was carried out 90 min after transduction. In each case, whole cell lysates prepared from cells in duplicate wells were analyzed for signaling pathways and TAT-protein uptake by immunoblotting.
(Immunoblotting shows a protein as a band on a membrane.)

Positions count from the first letter of the chain named. Names may count otherwise. “Also recorded” adds a separate entry of the source.

T1 sequence (P63096 2-354 limits assumed, one chain of several): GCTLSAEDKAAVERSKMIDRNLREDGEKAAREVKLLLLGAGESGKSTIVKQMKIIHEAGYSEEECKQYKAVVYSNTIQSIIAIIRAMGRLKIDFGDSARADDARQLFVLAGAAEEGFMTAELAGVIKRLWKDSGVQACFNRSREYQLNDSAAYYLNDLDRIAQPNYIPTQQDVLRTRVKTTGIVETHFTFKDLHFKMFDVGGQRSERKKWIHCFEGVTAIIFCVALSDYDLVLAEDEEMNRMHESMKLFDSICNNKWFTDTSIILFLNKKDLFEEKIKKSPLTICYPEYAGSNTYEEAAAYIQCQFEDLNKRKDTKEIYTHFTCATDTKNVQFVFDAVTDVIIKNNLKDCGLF

B1: TAT-GIV-CT-WT: Recombinant cell-permeable fusion of TAT-PTD, His and HA tags, linker and human GIV C-terminus (aa 1660-1870), wild type; SEQ ID NO: 2 (protein)
chain: MRGSHHHHHHGMASMTGGQQMGRDLYDDDDKDRWGSKLGYGRKKRRQRRRGGSTMSGYPYDVPDYAGSMGGSGHSGETLESRHHKIKTGSPGSEVVTLQQFLEESNKLTSVQIKSSSQENLLDEVMKSLSVSSDFLGKDKPVSCGLARSVSGKTPGDFYDRRTTKPEFLRPGPRKTEDTYFISSAGKPTPGTQGKIKLVKESSLSRQSKDSNPYATLPRASSVISTAEGTTRRTSIHDFLTKDSRLPISVDSPPAAADSNTTAASNVDKVQESRNSKSRSREQQSS
With B1, the “loss of FRET / dissociation of trimeric Gi in response to EGF” value in experiment [1] (50 nM EGF, 5 min) is recorded as “significant loss of FRET; also recorded: sufficient to trigger dissociation of trimeric Gi”. For the same molecule, in experiment [1] (50 nM EGF, 5 min, p=0.0011), the “FRET after EGF stimulation” value was determined as 0.15±0.07. The “FRET before EGF stimulation” value in experiment [1] (plasma membrane ROIs, t0) is 0.22±0.04. Besides, in the experiment with HeLa cells, the “2D-migration and wound closure” value is “enhances”. In experiment [2], the “Akt signaling (phosphorylation at Ser 473)” value is given as “enhances” and the EGFR autophosphorylation entry is reported as “enhances”.

B2: TAT-GIV-CT-FA: GEF-deficient F1685A mutant of the TAT-GIV-CT peptide, dominant-negative; SEQ ID NO: 3 (protein)
chain: B1 chain with F101A
Turning to B2, the “loss of FRET / dissociation of trimeric Gi in response to EGF” value is given as “No similar loss of FRET” in experiment [1] (50 nM EGF, 5 min) and “not” in experiment [1] (50 nM EGF, 5 min, listed as FA). Also, in the experiment on HeLa cells (listed as FA), the “2D-migration and wound closure” value was “delayed wound closure and not”. For the same molecule, in experiment [2], the “Akt signaling (phosphorylation at Ser 473)” value was “inhibited; also recorded: suppresses”. The EGFR autophosphorylation entry in experiment [2] is recorded as “inhibited; also recorded: suppresses”.

The record behind these values is US10653749B2, “Targeting GIV-GEF-GI signaling for treating diverse diseases” (The Regents of the University of California, priority 2015, dated 2020).
